According to publication PMC5947639:

Assays:
[1] = target: MafR_(V583), untagged MafR protein from Enterococcus faecalis V583 (Enterococcus faecalis V583); test: AUC
[2] = target: MafR_(V583), untagged MafR protein from Enterococcus faecalis V583 (Enterococcus faecalis V583); test: SEC

MafR_(V583), untagged MafR protein from Enterococcus faecalis V583 (natural protein)
stoichiometry N [1]: 2 | stoichiometry N [2]: 2
